Laboratory results from publication doi:10.1101/2022.03.03.481873v1.
Residue numbers refer to the chain shown, from its start. In names and notes the source's numbering stands.

B1: RcNSAR/OSBS (Roseiflexus castenholzii DSM 13941) (protein)
chain: MKIESITLHHIDMPLVAPFETSFGRETHRPCILIEMRADGLTGWGECVAGAGPWYAYETIGTAWHIISDFLAPMIVGQEITEPIGIVERFASVRGHPMARAAVEAAFWDLYAQARGVSLARLIGATRDRVTVGVSVGIELTLEAQLASIERFVAAGYARIKLKIKPGWDVAVVRAVRERWPDIALQVDANSAYTPDDAPIFRELDEMNLLLIEQPLHHDDIVDHARLQAQISTPICLDESIHSPEHARWALDIDACRVINIKIGRVGGLTAARQIHDLCAERGVPVWCGGMLETNVGRAVNLALAALPNFALPGDISASARYYHRDIAAPDFVLNDDSTITVPDTPGTGVAVLPERLRDVQVREVIIGKG
B2: EfNSAR/OSBS (Enterococcus faecalis V583) (protein)
chain: MNIQSIETYQVRLPLKTPFVTSYGRLEEKAFDLFVITDEQGNQGFGELVAFEQPDYVQETLVTERFIIQQHLIPLLLTEAIEQPQEVSTIFEEVKGHWMGKAALETAIWDLYAKRQQKSLTEFFGPTRRKIPVGISLGIQEDLPQLLKQVQLAVEKGYQRVKLKIRPGYDVEPVALIRQHFPNLPLMVDANSAYTLADLPQLQRLDHYQLAMIEQPFAADDFLDHAQLQRELKTRICLDENIRSLKDCQVALALGSCRSINLKIPRVGGIHEALKIAAFCQENDLLVWLGGMFESGVGRALNLQFASQPTFSFPGDISATERYFYEDIITEPFILEQGTMTVPQGLGIGVTLSQTNLLKYSQYQKIM
B3: LiNSAR/OSBS (Listeria innocua Clip11262) (protein)
chain: MYFQKARLIHAELPLLAPFKTSYGELKSKDFYIIELINEEGIHGYGELEAFPLPDYTEETLSSAILIIKEQLLPLLAQRKIRKPEEIQELFSWIQGNEMAKAAVELAVWDAFAKMEKRSLAKMIGATKESIKVGVSIGLQQNVETLLQLVNQYVDQGYERVKLKIAPNKDIQFVEAVRKSFPKLSLMADANSAYNREDFLLLKELDQYDLEMIEQPFGTKDFVDHAWLQKQLKTRICLDENIRSVKDVEQAHSIGSCRAINLKLARVGGMSSALKIAEYCALNEILVWCGGMLEAGVGRAHNIALAARNEFVFPGDISASNRFFAEDIVTPAFELNQGRLKVPTNEGIGVTLDLKVLKKYTKSTEEILLNKGWS
B4: BsDE (Bacillus subtilis subsp. subtilis str. 168; K271Q) (protein)
chain: MKIIRIETSRIAVPLTKPFKTALRTVYTAESVIVRITYDSGAVGWGEAPPTLVITGDSMDSIESAIHHVLKPALLGKSLAGYEAILHDIQHLLTGNMSAKAAVEMALYDGWAQMCGLPLYQMLGGYRDTLETDYTVSVNSPEEMAADAENYLKQGFQTLKIKVGKDDIATDIARIQEIRKRVGSAVKLRLDANQGWRPKEAVTAIRKMEDAGLGIELVEQPVHKDDLAGLKKVTDATDTPIMADESVFTPRQAFEVLQTRSADLINIKLMQAGGISGAEKINAMAEACGVECMVGSMIETKLGITAAAHFAASKRNITRFDFDAPLMLKTDVFNGGITYSGSTISMPGKPGLGIIGAALLKGEKEQ
B5: EcDE (Escherichia coli K-12) (protein)
chain: MRTVKVFEEAWPLHTPFVIARGSRSEARVVVVELEEEGIKGTGECTPYPRYGESDASVMAQIMSVVPQLEKGLTREELQKILPAGAARNALDCALWDLAARRQQQSLADLIGITLPETVITAQTVVIGTPDQMANSASTLWQAGAKLLKVKLDNHLISERMVAIRTAVPDATLIVDANESWRAEGLAARCQLLADLGVAMLEQPLPAQDDAALENFIHPLPICADESCHTRSNLKALKGRYEMVNIKLDKTGGLTEALALATEARAQGFSLMLGCMLCTSRAISAALPLVPQVSFADLDGPTWLAVDVEPALQFTTGELHL
B6: BsDE (Bacillus subtilis subsp. subtilis str. 168) (protein)
chain: B4 chain with Q271K

How the values were obtained:
Test in all cases: purified protein
[1] = system: O=C(O)CCC(=O)C1=CC=C[C@@H](O)[C@@H]1C(=O)O; conditions: 50 mM Tris pH 8.0, 0.1 mM MnCl2, 25 °C, Amycolatopsis numbering
[2] = substrate: O=C(O)CCC(=O)C1=CC=C[C@@H](O)[C@@H]1C(=O)O; conditions: 50 mM Tris pH 8.0, 0.1 mM MnCl2, 25 °C
[3] = substrate: O=C(O)CCC(=O)N[C@@H](C(=O)O)c1ccccc1; conditions: 200 mM Tris pH 8.0, 0.1 mM MnCl2, 25 °C
[4] = substrate: C[C@H](N)C(=O)N[C@@H](CCC(=O)O)C(=O)O; type: biochemical, Bacillus subtilis; conditions: 50 mM Tris pH 8.0, 10 mM MgCl2, 25 °C
[5] = substrate: C[C@H](N)C(=O)N[C@@H](CCC(=O)O)C(=O)O; type: biochemical, Escherichia coli; conditions: 50 mM Tris pH 8.0, 10 mM MgCl2, 25 °C

Molecule	Km [2]	kcat [2]	Km [3]	kcat [3]	also measured
LiNSAR/OSBS (Listeria innocua Clip11262; R266Q)	–	–	–	–	Km [1]: 163 ± 15 µM; kcat [1]: 0.57 ± 0.02 s⁻¹
B1	116 ± 15 µM	54.6 ± 2 s⁻¹	900 ± 100 µM	12.7 ± 0.4 s⁻¹	–
B2	17 ± 3 µM	160 ± 7 s⁻¹	1500 ± 150 µM	34 ± 1 s⁻¹	–
B3	155 ± 16 µM	216 ± 7 s⁻¹	1000 ± 270 µM	3.74 ± 0.5 s⁻¹	–
B4	–	–	–	–	Km [4]: 508 ± 165 µM; kcat [4]: 0.23 ± 0.03 s⁻¹
B5	–	–	–	–	Km [5]: 340 ± 60 µM; kcat [5]: 11.4 ± 0.7 s⁻¹
B6	–	–	–	–	Km [4]: 452 ± 120 µM; kcat [4]: 21.4 ± 2 s⁻¹
